Where a chain is given by its changes, count along the chain named. Numbers in names are those of the source.
B1: GpH7-TA3/GpH7-B3-03-20W/GpL16-k0 (antibody, human IgG1, kappa)
heavy 1: QVQLVQSGAEVKKPGASVTVSCKASGYTFTDYEMHWIRQPPGEGLEWIGAIDPKTGDTAYSESFQDRVTLTADKSTSTAYMELSSLTSEDTAVYYCTRFYSYTYWGQGTLVTVSSASTKGPSVFPLAPSSKSTSGGTAALGCLVKDYFPEPVTVSWNSGALTSGVHTFPAVLQSSGLYSLSSVVTVPSSSLGTQTYICNVNHKPSNTKVDKKVEPKSCDKTHTCPPCPAPELLGGPSVFLFPPKPKDTLMISRTPEVTCVVVDVSHEDPEVKFNWYVDGVEVHNAKTKPREEQYNATYRVVSVLTVLHQDWLNGKEYKCKVSNKALPAPIEKTISKAKGQPREPQVYTLPPSRKELTKNQVSLTCLVKGFYPSDIAVEWESNGQPENNYKTTPPVLDSDGSFFLYSKLTVDKSRWQQGNVFSCSVMHEALHNRYTQKSLSLSP
heavy 2: not shown
light: DIVMTQSPLSLPVTPGEPASISCQASESLVHSNRNTYLHWYLQKPGQSPQLLIYKVSNRFSGVPDRFSGSGSGTDFTLKISRVEAEDVGVYYCSQNTHVPPTFGQGTKVEIERTVAAPSVFIFPPSDEQLKSGTASVVCLLNNFYPREAKVQWKVDNALQSGNSQESVTEQDSKDSTYSLSSTLTLSKADYEKHKVYACEVTHQGLSSPVTKSFNRGEC
notes: H1 S298A; H2 G236W
B2: GpH7-A5/GpH7-B3 variant T335_07I/GpL16-k0 (antibody, human IgG1, kappa)
heavy 1: not shown
heavy 2: not shown
light: B1 light
notes: also called He Ab T335_07I
B3: GpH7-A5/GpH7-B3 variant T335_13S/GpL16-k0 (antibody, human IgG1, kappa)
heavy 1: not shown
heavy 2: not shown
light: B1 light
notes: also called He Ab T335_13S
B4: GpH7-A5/GpH7-B3 variant S337_04F/GpL16-k0 (antibody, human IgG1, kappa)
heavy 1: not shown
heavy 2: not shown
light: B1 light
notes: also called He Ab S337_04F
B5: GpH7-A5/GpH7-B3 variant T335_20W/GpL16-k0 (antibody, human IgG1, kappa)
heavy 1: not shown
heavy 2: not shown
light: B1 light
notes: also called He Ab T335_20W
B6: GpH7-A5/GpH7-B3 variant T335_15Y/GpL16-k0 (antibody, human IgG1, kappa)
heavy 1: not shown
heavy 2: not shown
light: B1 light
notes: also called He Ab T335_15Y
B7: GpH7-TA5/GpH7-B3-03-20W/GpL16-k0 (antibody, human IgG1, kappa)
heavy 1: B1 heavy 1 with L232Y
heavy 2: not shown
light: B1 light
notes: H1 L234Y and S298A; H2 G236W
B8: GpH7-A5/GpH7-B3 variant S337_10E/GpL16-k0 (antibody, human IgG1, kappa)
heavy 1: not shown
heavy 2: not shown
light: B1 light
notes: also called He Ab S337_10E
B9: GpH7-A5/GpH7-B3 variant T335_10E/GpL16-k0 (antibody, human IgG1, kappa)
heavy 1: not shown
heavy 2: not shown
light: B1 light
notes: also called He Ab T335_10E
B10: GpH7-A5/GpH7-B3 variant V266_08L/GpL16-k0 (antibody, human IgG1, kappa)
heavy 1: not shown
heavy 2: not shown
light: B1 light
notes: also called He Ab V266_08L
B11: GpH7-A5/GpH7-B3 variant Q295_14T/GpL16-k0 (antibody, human IgG1, kappa)
heavy 1: not shown
heavy 2: not shown
light: B1 light
notes: also called He Ab Q295_14T
B12: GpH7-TA4/GpH7-B3-15-02A/GpL16-k0 (antibody, human IgG1, kappa)
heavy 1: B1 heavy 1 with L232Y, G234W, A296S
heavy 2: not shown
light: B1 light
notes: H1 L234Y and G236W; H2 S298A
B13: GpH7-A5/GpH7-B3 variant S267_02A/GpL16-k0 (antibody, human IgG1, kappa)
heavy 1: not shown
heavy 2: not shown
light: B1 light
notes: also called He Ab S267_02A
B14: GpH7-A5/GpH7-B3 variant S337_14T/GpL16-k0 (antibody, human IgG1, kappa)
heavy 1: not shown
heavy 2: not shown
light: B1 light
notes: also called He Ab S337_14T
B15: GpH7-A5/GpH7-B3 variant S324_02A/GpL16-k0 (antibody, human IgG1, kappa)
heavy 1: not shown
heavy 2: not shown
light: B1 light
notes: also called He Ab S324_02A
B16: GpH7-A5/GpH7-B3 variant S337_18N/GpL16-k0 (antibody, human IgG1, kappa)
heavy 1: not shown
heavy 2: not shown
light: B1 light
notes: also called He Ab S337_18N
B17: GpH7-TA6/GpH7-B3-01-15Y/GpL16-k0 (antibody, human IgG1, kappa)
heavy 1: B1 heavy 1 with G234W
heavy 2: not shown
light: B1 light
notes: H1 G236W and S298A; H2 L234Y
B18: GpH7-A5/GpH7-B3 variant A330_12R/GpL16-k0 (antibody, human IgG1, kappa)
heavy 1: not shown
heavy 2: not shown
light: B1 light
notes: Heterodimerized IgG1, mutation in the GpH7-B3 chain only; also called He Ab
B19: GpH7-A5/GpH7-B3 variant A330_19Q/GpL16-k0 (antibody, human IgG1, kappa)
heavy 1: not shown
heavy 2: not shown
light: B1 light
notes: as for B18
B20: GpH7-A5/GpH7-B3 variant A330_11K/GpL16-k0 (antibody, human IgG1, kappa)
heavy 1: not shown
heavy 2: not shown
light: B1 light
notes: as for B18
B21: GpH7-A5/GpH7-B3 variant A330_16H/GpL16-k0 (antibody, human IgG1, kappa)
heavy 1: not shown
heavy 2: not shown
light: B1 light
notes: as for B18

Biological target: T1, FcγRIIIa extracellular domain with C-terminal His tag (human, UniProt P08637 17-208)
T1 construct: extracellular domain; also called FcgRIIIa; 3a; not shown: His tag at the C terminus
T1 sequence (P08637 17-208): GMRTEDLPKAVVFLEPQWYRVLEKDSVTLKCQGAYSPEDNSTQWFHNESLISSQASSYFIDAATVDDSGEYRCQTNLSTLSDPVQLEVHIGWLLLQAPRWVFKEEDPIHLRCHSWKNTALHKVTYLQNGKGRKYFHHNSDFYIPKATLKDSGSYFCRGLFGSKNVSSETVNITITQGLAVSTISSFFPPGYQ
Test: SPR relative binding; GpH7-A5/GpH7-B3/GpL16-k0 = 100
Experimental: Analysis of interaction between objective antibody and the FcγR was carried out using Biacore T100 (GE Healthcare). HBS-EP+ (GE Healthcare) was used as the running buffer, and the measurement temperature was set to 25° C. Chips produced by immobilizing the antigen peptide by the amine coupling method to a Series S Sencor Chip CM5 (GE Healthcare), or alternatively, chips produced by allowing preliminarily biotinylated antigen peptides to interact with and immobilize onto a Series S Sensor Chip SA (certified) (GE Healthcare) were used. Antibodies of interest were captured onto an antigen peptide-immobilized chip, and allowed to interact to each FcγR diluted with running buffer. To regenerate and repeatedly use the chip, the antibodies captured on the chip were washed off by reacting 10 mM glycine-HCl, pH 1.5.
The FcγR-binding activity of each antibody was assessed primarily using as an indicator the FcγR-binding activity and dissociation constant for FcγR.

Binder	FcγRIIIa BINDING ACTIVITY	He/Con_3a
B1	70 % of control	
B2		107 % of control
B3		105 % of control
B4		101 % of control
B5		102 % of control
B6		104 % of control
B7	97 % of control	
B8		105 % of control
B9		107 % of control
B10		118 % of control
B11		115 % of control
B12	151 % of control	
B13		150 % of control
B14		101 % of control
B15		104 % of control
B16		104 % of control
B17	103 % of control	

Biological target: T2, FcγRIIa H (human, UniProt P12318 34-217)
T2 construct: extracellular domain; also called FcgRIIa H; FcγRIIa type H; not shown: His tag attached to the C terminus
T2 sequence (looked up): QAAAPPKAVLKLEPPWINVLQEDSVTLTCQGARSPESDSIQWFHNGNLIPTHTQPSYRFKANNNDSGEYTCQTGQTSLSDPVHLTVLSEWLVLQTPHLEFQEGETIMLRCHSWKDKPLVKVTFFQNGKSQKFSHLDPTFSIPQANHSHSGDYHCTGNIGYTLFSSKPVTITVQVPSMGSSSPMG
Test: SPR (Biacore), antibody captured, FcγR as analyte; binding relative to GpH7-A5/GpH7-B3/GpL16-k0 = 100

Binder	He/Con_2aH [control = 100]
B18	108
B19	102
B20	109
B21	101

Biological target: T3, FcγRIIb (human, UniProt P31994 43-217)
T3 construct: extracellular domain; also called FcgRIIb; 2b; not shown: His tag attached to the C terminus
T3 sequence (looked up): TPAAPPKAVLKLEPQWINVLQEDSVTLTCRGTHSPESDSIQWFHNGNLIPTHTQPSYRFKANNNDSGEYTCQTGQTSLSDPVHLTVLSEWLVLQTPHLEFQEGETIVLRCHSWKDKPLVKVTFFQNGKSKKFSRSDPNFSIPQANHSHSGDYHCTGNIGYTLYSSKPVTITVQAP
Test: as above

Binder	He/Con_2b [control = 100]
B18	84.8
B19	90.8
B20	95
B21	87.6

Source: patent publication US20180155451A1 (published 2018)
